{
  "source": "the RNAGym collection of RNA variant scans (doi:10.1073/pnas.2313332121)",
  "parents": {"B1": {"name": "TPR 5TU (parent)", "chain": "GGAUCUUCUCGAUCUAACAAAAAAGACAAAUCUGCCACAAAGCUUGAGAGCAUCUUCGGAUGCAGAGGCGGCAGCCUUCGGUGGCGCGAUAGCGCCAACGUUCUCAACUAUGACACGCAAAACGCGUGCUCCGUUGAAUGGAGUUUAUCAUG"}},
  "note": "Fewer inactive variants are shown than the library holds.",
  "data": [
    {"variants_of": "B1", "test": "polymerase ribozyme fitness, log enrichment relative to wild type (log ratio); higher = more active; in vitro selection for triplet polymerase activity", "in_short": "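Fitness measures genotype enrichment against wild-type enrichment on a logarithmic scale, with inverse-variance-weighted averaging of replicates. The logarithm is base 2, and genotypes were kept only with ≥10 input reads and ≥1 read per output in Illumina sequencing. The sequenced libraries came from one triplicate in vitro selection round, including frozen incubation at −7 °C, of PCR-built, transcribed mutant libraries of each subunit of a heterodimeric triplet polymerase ribozyme.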", "values": [
      {"variant": "G11A A28U C32U A47U C79A", "polymerase ribozyme fitness (log ratio)": "≤ -4.2"},
      {"variant": "C10U U109G A142C C149A", "polymerase ribozyme fitness (log ratio)": "≤ -4.2"},
      {"variant": "C10U C32U A49C U134C", "polymerase ribozyme fitness (log ratio)": "≤ -4.2"},
      {"variant": "G11C C75U", "polymerase ribozyme fitness (log ratio)": -1.85},
      {"variant": "A12C A16G A41C A121U", "polymerase ribozyme fitness (log ratio)": -1.69},
      {"variant": "C10U U55A", "polymerase ribozyme fitness (log ratio)": -2.91},
      {"variant": "G11U A52G A60G G83U", "polymerase ribozyme fitness (log ratio)": -3.33},
      {"variant": "G11A C35U C51U U61G C63U A64C C85G U90G G140A", "polymerase ribozyme fitness (log ratio)": "≤ -4.2"},
      {"variant": "A12C A17U U53A C96A U139G", "polymerase ribozyme fitness (log ratio)": -3.83},
      {"variant": "G11A C69U C87U G92C A150G", "polymerase ribozyme fitness (log ratio)": -2.89},
      {"variant": "G11U C54U U77G G92U U145A A147U", "polymerase ribozyme fitness (log ratio)": "≤ -4.2"},
      {"variant": "G11A A64G G88U U101G C103G U146G", "polymerase ribozyme fitness (log ratio)": "≤ -4.2"},
      {"variant": "G11A C57A", "polymerase ribozyme fitness (log ratio)": -1.44},
      {"variant": "C10U U15A A23U C32A C51U U55G U111G", "polymerase ribozyme fitness (log ratio)": "≤ -4.2"},
      {"variant": "G11C U15G A20C A28U C85U G140U U145G", "polymerase ribozyme fitness (log ratio)": "≤ -4.2"},
      {"variant": "G11U C51U A113U C132A U139G U146A", "polymerase ribozyme fitness (log ratio)": "≤ -4.2"},
      {"variant": "G11A G94U A113C C114U A122C G143U C149U", "polymerase ribozyme fitness (log ratio)": "≤ -4.2"},
      {"variant": "G11A C38U G59C A64U G81A C93U G94C", "polymerase ribozyme fitness (log ratio)": "≤ -4.2"},
      {"variant": "G11A C54U U55A G74A A89G G92C C105G G112A U144G", "polymerase ribozyme fitness (log ratio)": "≤ -4.2"},
      {"variant": "A12C C85U C116A A122G G143U", "polymerase ribozyme fitness (log ratio)": "≤ -4.2"},
      {"variant": "G11U A29C A89C C125U", "polymerase ribozyme fitness (log ratio)": -4.16},
      {"variant": "C10U G92A G141C", "polymerase ribozyme fitness (log ratio)": -3.99},
      {"variant": "A12C A20G G25A A30G U44A A89G U145G", "polymerase ribozyme fitness (log ratio)": "≤ -4.2"},
      {"variant": "G11A A16U A24U C85A A142C", "polymerase ribozyme fitness (log ratio)": "≤ -4.2"},
      {"variant": "A12C A60U C75G G88C A91G U109G", "polymerase ribozyme fitness (log ratio)": "≤ -4.2"},
      {"variant": "A12C C38G C85A C116A A120G", "polymerase ribozyme fitness (log ratio)": -1.83},
      {"variant": "G11A A40G A49C U61A G81A C125A", "polymerase ribozyme fitness (log ratio)": "≤ -4.2"},
      {"variant": "A12C A66G A91U", "polymerase ribozyme fitness (log ratio)": "≤ -4.2"},
      {"variant": "G11C G83A G141U", "polymerase ribozyme fitness (log ratio)": -0.379},
      {"variant": "G11C A29G A40U C76U C87U", "polymerase ribozyme fitness (log ratio)": "≤ -4.2"},
      {"variant": "A12C", "polymerase ribozyme fitness (log ratio)": 0.0783},
      {"variant": "C10U U45A C54A G71C G136U", "polymerase ribozyme fitness (log ratio)": "≤ -4.2"},
      {"variant": "C10U C38U G80A G94C C125A G143A", "polymerase ribozyme fitness (log ratio)": "≤ -4.2"},
      {"variant": "C10U G11A A19U U55A C75G G83U", "polymerase ribozyme fitness (log ratio)": "≤ -4.2"},
      {"variant": "G11A A39U A40C G100C", "polymerase ribozyme fitness (log ratio)": "≤ -4.2"},
      {"variant": "G11U U53A G65A A73U G83C U144A", "polymerase ribozyme fitness (log ratio)": "≤ -4.2"},
      {"variant": "G11U U44A G92C", "polymerase ribozyme fitness (log ratio)": "≤ -4.2"},
      {"variant": "G11C A91U", "polymerase ribozyme fitness (log ratio)": -4.11},
      {"variant": "G11A A26C U90G", "polymerase ribozyme fitness (log ratio)": "≤ -4.2"},
      {"variant": "C10U C32A C51G A106G A142C U148A", "polymerase ribozyme fitness (log ratio)": "≤ -4.2"},
      {"variant": "A12C C87U C114U U139G", "polymerase ribozyme fitness (log ratio)": -3.08},
      {"variant": "G11C A115C", "polymerase ribozyme fitness (log ratio)": -2.86},
      {"variant": "G11A C51U U55A U56G A142C", "polymerase ribozyme fitness (log ratio)": -3.56},
      {"variant": "G11A C43U C54U A106U C108G G112A", "polymerase ribozyme fitness (log ratio)": "≤ -4.2"},
      {"variant": "G11C C116G", "polymerase ribozyme fitness (log ratio)": -0.794},
      {"variant": "G11U U56A C79G C87G C96U A142G", "polymerase ribozyme fitness (log ratio)": "≤ -4.2"},
      {"variant": "G11C G62A C87G", "polymerase ribozyme fitness (log ratio)": "≤ -4.2"},
      {"variant": "C10U C35A A40U U44A C51U G59U G68C C87A G143U", "polymerase ribozyme fitness (log ratio)": "≤ -4.2"},
      {"variant": "A12C C14U U55A A98G C103G G133A", "polymerase ribozyme fitness (log ratio)": "≤ -4.2"},
      {"variant": "G11C C114U U139A", "polymerase ribozyme fitness (log ratio)": "≤ -4.2"},
      {"variant": "G11U G25C G71C C95G C103A C116G", "polymerase ribozyme fitness (log ratio)": "≤ -4.2"},
      {"variant": "A12C A29U G68C A73C G80U G84C", "polymerase ribozyme fitness (log ratio)": "≤ -4.2"},
      {"variant": "G11A U15G A17C A20U U33C A64G C93G A110G A147U", "polymerase ribozyme fitness (log ratio)": "≤ -4.2"},
      {"variant": "G11A C32U G71A A137G A138G", "polymerase ribozyme fitness (log ratio)": "≤ -4.2"},
      {"variant": "G11U C103G C123G", "polymerase ribozyme fitness (log ratio)": -2.44},
      {"variant": "C10U G11U A29C U44G U55A G68A G71U G80A C93A A98U A138C", "polymerase ribozyme fitness (log ratio)": "≤ -4.2"},
      {"variant": "G11C C105U C118G", "polymerase ribozyme fitness (log ratio)": -1.92},
      {"variant": "G11A C54A", "polymerase ribozyme fitness (log ratio)": -2.47},
      {"variant": "G11A C14U U33G U44A C69A C79A C85U A97U", "polymerase ribozyme fitness (log ratio)": "≤ -4.2"},
      {"variant": "G11A A26C G68U C75U A147C", "polymerase ribozyme fitness (log ratio)": "≤ -4.2"},
      {"variant": "A12C A142C", "polymerase ribozyme fitness (log ratio)": -1.32},
      {"variant": "G11U G46A C85U", "polymerase ribozyme fitness (log ratio)": -2.44},
      {"variant": "A12C C14U A22C U61G G65A G86A C93U U134G", "polymerase ribozyme fitness (log ratio)": "≤ -4.2"},
      {"variant": "G11A A23U U53A G92U C108U A142U", "polymerase ribozyme fitness (log ratio)": "≤ -4.2"},
      {"variant": "A12C A64G C85A G100C", "polymerase ribozyme fitness (log ratio)": "≤ -4.2"},
      {"variant": "G11U C32U C93G A107G", "polymerase ribozyme fitness (log ratio)": "≤ -4.2"},
      {"variant": "G11A A60G A106G", "polymerase ribozyme fitness (log ratio)": -0.626},
      {"variant": "C10U G65A G92A", "polymerase ribozyme fitness (log ratio)": "≤ -4.2"},
      {"variant": "G11U U55G A60G G67A C93U", "polymerase ribozyme fitness (log ratio)": "≤ -4.2"},
      {"variant": "C10U U13C A37C G70A C79A G84A A107C", "polymerase ribozyme fitness (log ratio)": "≤ -4.2"},
      {"variant": "G11A A39G C54G C87U C96G", "polymerase ribozyme fitness (log ratio)": "≤ -4.2"},
      {"variant": "G11C C14G C93U C125A", "polymerase ribozyme fitness (log ratio)": "≤ -4.2"},
      {"variant": "G11U C93U A115G", "polymerase ribozyme fitness (log ratio)": -2.88},
      {"variant": "C10U G136A", "polymerase ribozyme fitness (log ratio)": -2.74},
      {"variant": "G11U G74U G81U G88C A89G C95U G128U U148A", "polymerase ribozyme fitness (log ratio)": "≤ -4.2"},
      {"variant": "A12C A21U A64C G84U U127C A138U", "polymerase ribozyme fitness (log ratio)": "≤ -4.2"},
      {"variant": "G11C G74A C76U C93G A113G U145A", "polymerase ribozyme fitness (log ratio)": "≤ -4.2"},
      {"variant": "C10U G58U G83A A89C A110G U148A", "polymerase ribozyme fitness (log ratio)": "≤ -4.2"},
      {"variant": "G11C A22U A30G A37C A91G C93A A98C C118G", "polymerase ribozyme fitness (log ratio)": "≤ -4.2"},
      {"variant": "G11U A37U C87A", "polymerase ribozyme fitness (log ratio)": -4.14},
      {"variant": "G11U G34A G50A C85U U90C G143A", "polymerase ribozyme fitness (log ratio)": "≤ -4.2"},
      {"variant": "C10U G42C G83U A97G G124U G133C", "polymerase ribozyme fitness (log ratio)": "≤ -4.2"},
      {"variant": "G11C C57U C95U U127A C149A", "polymerase ribozyme fitness (log ratio)": "≤ -4.2"},
      {"variant": "G11U A19C U55A G71A A91C G100A U109G A122U", "polymerase ribozyme fitness (log ratio)": "≤ -4.2"}
    ]}
  ]
}
